Experimental data reported in patent US20240392004A1 (IMMUNOWAKE, published 2024).

T1: mouse PD-1 (mouse, UniProt Q02242 25-167, limits assumed)
T1 construct: also called mPD-1
T1 sequence (looked up): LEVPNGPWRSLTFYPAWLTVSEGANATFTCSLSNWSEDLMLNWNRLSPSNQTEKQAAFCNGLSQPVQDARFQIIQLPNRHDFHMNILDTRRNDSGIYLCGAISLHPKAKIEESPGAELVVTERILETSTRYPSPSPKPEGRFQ


Tests used:
human PD-1 = molecular target: T2, human PD-1 (human, UniProt Q15116 25-167, limits assumed); test: PD-L2-Fc format, calibrated on PD-L2(wt)-Fc, method not stated
T2 construct: also called hPD-1

mouse PD-1 = molecular target: T1, mouse PD-1; test: as above

T2 sequence (Q15116 25-167 limits assumed): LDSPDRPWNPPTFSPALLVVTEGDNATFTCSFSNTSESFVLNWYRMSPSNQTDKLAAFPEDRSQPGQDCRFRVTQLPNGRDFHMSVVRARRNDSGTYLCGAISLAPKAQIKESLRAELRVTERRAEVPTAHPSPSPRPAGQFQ

Binder	Kd (human PD-1) [nM]	Kd (mouse PD-1) [nM]
PD-L2(mut1)-Fc, T56V (Fc fusion) chain 1: LFTVTVPKELYIIEHGSNVTLECNFDTGSHVNLGAIVASLQKVENDTSPHRERATLLEEQLPLGKASFHIPQVQVRDEGQYQCIIIYGVAWDYKYLTLKVKASYRKINTHILKVPETDEVELTCQATGYPLAEVSWPNVSVPANTSHSRTPEGLYQVTSVLRLKPPPGRNFSCVFWNTHVRELTLASIDLQSQMEPRTHPTDKTHTCPPCPAPEDEGGPSVFLFPPKPKDTLMISRTPEVTCVVVDVSHEDPEVKFNWYVDGVEVHNAKTKPREEQYNSTYRVVSVLTVLHQDWLNGKEYKCKVSNKALPAPIEKTISKAKGQPREPQVYVYPPSREEMTKNQVSLTCLVKGFYPSDIAVEWESNGQPENNYKTTPPVLDEDGSFALVSKLTVDKSRWQQGNVFSCSVMHEALHNHYTQKSLSLSPGK chain 2: LFTVTVPKELYIIEHGSNVTLECNFDTGSHVNLGAIVASLQKVENDTSPHRERATLLEEQLPLGKASFHIPQVQVRDEGQYQCIIIYGVAWDYKYLTLKVKASYRKINTHILKVPETDEVELTCQATGYPLAEVSWPNVSVPANTSHSRTPEGLYQVTSVLRLKPPPGRNFSCVFWNTHVRELTLASIDLQSQMEPRTHPTDKTHTCPPCPAPEKKGGPSVFLFPPKPKDTLMISRTPEVTCVVVDVSHEDPEVKFNWYVDGVEVHNAKTKPREEQYNSTYRVVSVLTVLHQDWLNGKEYKCKVSNKALPAPIEKTISKAKGQPREPQVYVLPPSREEMTKNQVSLLCLVKGFYPSDIAVEWESNGQPENRYMTWPPVLDSDGSFFLYSKLTVDKSRWQQGNVFSCSVMHEALHNHYTQKSLSLSPGK	520	430
PD-L2(mut3)-Fc, Q60L (Fc fusion) chain 1: LFTVTVPKELYIIEHGSNVTLECNFDTGSHVNLGAITASLLKVENDTSPHRERATLLEEQLPLGKASFHIPQVQVRDEGQYQCIIIYGVAWDYKYLTLKVKASYRKINTHILKVPETDEVELTCQATGYPLAEVSWPNVSVPANTSHSRTPEGLYQVTSVLRLKPPPGRNFSCVFWNTHVRELTLASIDLQSQMEPRTHPTDKTHTCPPCPAPEDEGGPSVFLFPPKPKDTLMISRTPEVTCVVVDVSHEDPEVKFNWYVDGVEVHNAKTKPREEQYNSTYRVVSVLTVLHQDWLNGKEYKCKVSNKALPAPIEKTISKAKGQPREPQVYVYPPSREEMTKNQVSLTCLVKGFYPSDIAVEWESNGQPENNYKTTPPVLDEDGSFALVSKLTVDKSRWQQGNVFSCSVMHEALHNHYTQKSLSLSPGK chain 2: LFTVTVPKELYIIEHGSNVTLECNFDTGSHVNLGAITASLLKVENDTSPHRERATLLEEQLPLGKASFHIPQVQVRDEGQYQCIIIYGVAWDYKYLTLKVKASYRKINTHILKVPETDEVELTCQATGYPLAEVSWPNVSVPANTSHSRTPEGLYQVTSVLRLKPPPGRNFSCVFWNTHVRELTLASIDLQSQMEPRTHPTDKTHTCPPCPAPEKKGGPSVFLFPPKPKDTLMISRTPEVTCVVVDVSHEDPEVKFNWYVDGVEVHNAKTKPREEQYNSTYRVVSVLTVLHQDWLNGKEYKCKVSNKALPAPIEKTISKAKGQPREPQVYVLPPSREEMTKNQVSLLCLVKGFYPSDIAVEWESNGQPENRYMTWPPVLDSDGSFFLYSKLTVDKSRWQQGNVFSCSVMHEALHNHYTQKSLSLSPGK	490	320
PD-L2(mut2)-Fc, S58V (Fc fusion, also called PD-L2(S58V)) chain 1: LFTVTVPKELYIIEHGSNVTLECNFDTGSHVNLGAITAVLQKVENDTSPHRERATLLEEQLPLGKASFHIPQVQVRDEGQYQCIIIYGVAWDYKYLTLKVKASYRKINTHILKVPETDEVELTCQATGYPLAEVSWPNVSVPANTSHSRTPEGLYQVTSVLRLKPPPGRNFSCVFWNTHVRELTLASIDLQSQMEPRTHPTGGGGSGGGDKTHTCPPCPAPEDEGGPSVFLFPPKPKDTLMISRTPEVTCVVVDVSHEDPEVKFNWYVDGVEVHNAKTKPREEQYNSTYRVVSVLTVLHQDWLNGKEYKCKVSNKALPAPIEKTISKAKGQPREPQVYVYPPSREEMTKNQVSLTCLVKGFYPSDIAVEWESNGQPENNYKTTPPVLDEDGSFALVSKLTVDKSRWQQGNVFSCSVMHEALHNHYTQKSLSLSPGK chain 2: LFTVTVPKELYIIEHGSNVTLECNFDTGSHVNLGAITAVLQKVENDTSPHRERATLLEEQLPLGKASFHIPQVQVRDEGQYQCIIIYGVAWDYKYLTLKVKASYRKINTHILKVPETDEVELTCQATGYPLAEVSWPNVSVPANTSHSRTPEGLYQVTSVLRLKPPPGRNFSCVFWNTHVRELTLASIDLQSQMEPRTHPTGGGGSGGGDKTHTCPPCPAPEKKGGPSVFLFPPKPKDTLMISRTPEVTCVVVDVSHEDPEVKFNWYVDGVEVHNAKTKPREEQYNSTYRVVSVLTVLHQDWLNGKEYKCKVSNKALPAPIEKTISKAKGQPREPQVYVLPPSREEMTKNQVSLLCLVKGFYPSDIAVEWESNGQPENRYMTWPPVLDSDGSFFLYSKLTVDKSRWQQGNVFSCSVMHEALHNHYTQKSLSLSPGK	350	230
PD-L2(mut4)-Fc, T56V/S58V/Q60L (Fc fusion) chain 1: LFTVTVPKELYIIEHGSNVTLECNFDTGSHVNLGAIVAVLLKVENDTSPHRERATLLEEQLPLGKASFHIPQVQVRDEGQYQCIIIYGVAWDYKYLTLKVKASYRKINTHILKVPETDEVELTCQATGYPLAEVSWPNVSVPANTSHSRTPEGLYQVTSVLRLKPPPGRNFSCVFWNTHVRELTLASIDLQSQMEPRTHPTGGGGSGGGDKTHTCPPCPAPEDEGGPSVFLFPPKPKDTLMISRTPEVTCVVVDVSHEDPEVKFNWYVDGVEVHNAKTKPREEQYNSTYRVVSVLTVLHQDWLNGKEYKCKVSNKALPAPIEKTISKAKGQPREPQVYVYPPSREEMTKNQVSLTCLVKGFYPSDIAVEWESNGQPENNYKTTPPVLDEDGSFALVSKLTVDKSRWQQGNVFSCSVMHEALHNHYTQKSLSLSPGK chain 2: LFTVTVPKELYIIEHGSNVTLECNFDTGSHVNLGAIVAVLLKVENDTSPHRERATLLEEQLPLGKASFHIPQVQVRDEGQYQCIIIYGVAWDYKYLTLKVKASYRKINTHILKVPETDEVELTCQATGYPLAEVSWPNVSVPANTSHSRTPEGLYQVTSVLRLKPPPGRNFSCVFWNTHVRELTLASIDLQSQMEPRTHPTGGGGSGGGDKTHTCPPCPAPEKKGGPSVFLFPPKPKDTLMISRTPEVTCVVVDVSHEDPEVKFNWYVDGVEVHNAKTKPREEQYNSTYRVVSVLTVLHQDWLNGKEYKCKVSNKALPAPIEKTISKAKGQPREPQVYVLPPSREEMTKNQVSLLCLVKGFYPSDIAVEWESNGQPENRYMTWPPVLDSDGSFFLYSKLTVDKSRWQQGNVFSCSVMHEALHNHYTQKSLSLSPGK	255	220
